Substitutions are numbered along the chain they refer to.
T1: cynomolgus monkey SIRPγ-His monomer protein (cynomolgus monkey, UniProt Q9P1W8 29-359 (human entry), limits assumed)
T1 construct: also called Cyno SIRPγ; Cyno SIRPγ-His
T1 chain: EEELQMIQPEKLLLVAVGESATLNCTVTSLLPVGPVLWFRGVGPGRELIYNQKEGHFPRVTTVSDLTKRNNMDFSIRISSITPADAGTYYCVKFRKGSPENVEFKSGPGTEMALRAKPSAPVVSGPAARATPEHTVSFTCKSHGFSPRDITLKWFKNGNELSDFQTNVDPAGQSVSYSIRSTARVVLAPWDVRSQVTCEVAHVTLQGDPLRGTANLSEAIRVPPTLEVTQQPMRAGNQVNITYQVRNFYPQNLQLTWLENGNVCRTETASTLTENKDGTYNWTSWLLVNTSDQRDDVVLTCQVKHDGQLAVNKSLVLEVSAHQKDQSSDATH

T2: cynomolgus monkey SIRPγ on CHO cells (cynomolgus monkey, UniProt Q9P1W8 29-386 (human entry))
T2 construct: also called Cyno SIRPγ CHO
T2 chain: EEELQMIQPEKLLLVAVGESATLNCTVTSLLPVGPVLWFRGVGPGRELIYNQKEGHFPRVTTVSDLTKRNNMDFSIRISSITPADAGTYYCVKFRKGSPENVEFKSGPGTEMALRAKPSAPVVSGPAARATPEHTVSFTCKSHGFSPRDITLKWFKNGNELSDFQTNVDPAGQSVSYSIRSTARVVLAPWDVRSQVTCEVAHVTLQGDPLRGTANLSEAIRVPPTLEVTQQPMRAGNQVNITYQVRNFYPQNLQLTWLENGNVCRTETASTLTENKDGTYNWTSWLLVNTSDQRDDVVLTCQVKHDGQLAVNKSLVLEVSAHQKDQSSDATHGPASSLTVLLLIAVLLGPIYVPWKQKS

T3: cynomolgus monkey SIRPα on CHO cells (cynomolgus monkey, UniProt A0A2K5VYQ9 31-507)
T3 construct: whole, on cells; also called Cyno SIRPα CHO
T3 sequence: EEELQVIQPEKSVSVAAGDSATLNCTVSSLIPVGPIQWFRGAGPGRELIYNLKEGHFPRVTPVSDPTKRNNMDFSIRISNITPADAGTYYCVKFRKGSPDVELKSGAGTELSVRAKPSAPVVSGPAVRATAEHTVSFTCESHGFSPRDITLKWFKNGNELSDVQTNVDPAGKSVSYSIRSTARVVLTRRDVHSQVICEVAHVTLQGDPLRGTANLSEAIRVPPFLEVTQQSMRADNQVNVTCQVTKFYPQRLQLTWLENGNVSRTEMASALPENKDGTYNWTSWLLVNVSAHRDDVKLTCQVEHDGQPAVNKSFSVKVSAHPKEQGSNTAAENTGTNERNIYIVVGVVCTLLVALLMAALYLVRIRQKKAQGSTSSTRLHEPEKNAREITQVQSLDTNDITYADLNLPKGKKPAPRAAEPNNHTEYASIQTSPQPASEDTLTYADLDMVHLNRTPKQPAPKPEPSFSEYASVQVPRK

B1: Antibody 15 (scFv, V domains shown)
VH: QVQLVQSGAEVKKPGASVKVSCKASGYSFTSYGISWVRQAPGQGLEWMGWISPYNGNTNYAQKLQGRVTMTRDTSTSTVYMELSSLRSEDTAVYYCAREAYGDYGDYFDYWGQGTLVTVSS
VL: DIQMTQSPSSLSASVGDRVTITCRASQGVGDRSAWYQQKPGKAPKLLIYDASNLETGVPSRFSGSGSGTDFTLTISSLQPEDFATYYCQQADTFPYTFGQGTKLEIK
notes: scFv in crude PPE, V5/myc-tagged
B2: Antibody 18 (scFv, V domains shown)
VH: QVQLVQSGAEVKKPGASVKVSCKASGYTFTGYYMHWVRQAPGQGLEWMGWMNPNSGNTGYAQKFQGRVTMTRDTSTSTVYMELSSLRSEDTAVYYCARGSGYDAGVFDYWGQGTLVTVSS
VL: DIQMTQSPSSLSASVGDRVTITCRASQGIGNDLAWYQQKPGKAPKLLIYDAKDLHPGVPSRFSGSGSGTDFTLTISSLQPEDFATYYCQQSYSFPRTFGQGTRLEIK
notes: as for B1
B3: Antibody 10 (scFv, V domains shown)
VH: QVQLVQSGAEVKKPGASVKVSCKASGGTFSNYDISWVRQAPGQGLEWMGMIDPSGGSTSYAQKFQGRVTMTRDTSTSTVYMELSSLRSEDTAVYYCARPYSSGWYYFDYWGQGTLVTVSS
VL: DIQMTQSPSSLSASVGDRVTITCQASQDIHNYLNWYQQKPGKAPKLLIYDASNLETGVPSRFSGSGSGTDFTLTISSLQPEDFATYYCQQSYNTPPTFGQGTRLEIK
notes: as for B1
B4: Antibody 23 (scFv, V domains shown)
VH: QVQLVQSGAEVKKPGASVKVSCKASGGTFSNYDINWVRQAPGQGLEWMGWISAYNGNTNYAQKLQGRVTMTRDTSTSTVYMELSSLRSEDTAVYYCAAEAYGDYSLDPWGQGTLVTVSS
VL: B3 VL with D28G, H30S, N31S, D50A, N53S, E55Q, T56N, N93S, P96I
notes: as for B1
B5: Antibody 25 (scFv, V domains shown)
VH: EVQLLESGGGLVQPGGSLRLSCAASGFTVGSWYMSWVRQAPGKGLEWVAHVSDDGSNEFYADSVKGRFTISRDNSKNTLYLQMNSLRAEDTAVYYCARSPGYCSSTSCYRYYGMDVWGQGTTVTVSS
VL: DIQMTQSPSSLSASVGDRVTITCRTSQSIGTYLNWYQQKPGKAPKLLIYDASNLPTGVPSRFSGSGSGTDFTLTISSLQPEDFATYYCQNYNSALFGPGTKVDIK
notes: as for B1
B6: Antibody 30 (scFv, V domains shown)
VH: QVQLVQSGAEVKKPGASVKVSCKASGYTFTNFDINWVRQAPGQGLEWMGWISAYNGHTNYAQNLQGRVTMTRDTSTSTVYMELSSLRSEDTAVYYCAQEAAAGYFDYWGQGTLVTVSS
VL: B3 VL with Q24R, H30R, Y32D, N34A, N93G, P96Y, R103K
notes: as for B1

target: T4, human SIRPγ-His monomer protein (human, UniProt Q9P1W8 29-360); test: BLI Octet, V5-scFv PPE captured, SIRP-His 500 nM
T4 construct: also called hSIRPγ
T4 sequence (Q9P1W8 29-360 limits assumed): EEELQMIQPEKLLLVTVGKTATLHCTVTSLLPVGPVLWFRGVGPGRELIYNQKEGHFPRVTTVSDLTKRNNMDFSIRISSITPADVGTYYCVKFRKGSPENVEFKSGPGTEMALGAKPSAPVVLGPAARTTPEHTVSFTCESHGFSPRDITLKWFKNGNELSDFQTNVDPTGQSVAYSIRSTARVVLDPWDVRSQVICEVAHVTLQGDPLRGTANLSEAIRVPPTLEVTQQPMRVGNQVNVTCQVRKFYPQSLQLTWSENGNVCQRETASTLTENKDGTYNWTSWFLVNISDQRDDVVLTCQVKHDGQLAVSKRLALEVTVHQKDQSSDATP

Binder	kdis
B1	0.001 to 0.01 s⁻¹
B2	0.001 to 0.01 s⁻¹
B3	0.001 to 0.01 s⁻¹
B4	0.001 to 0.01 s⁻¹
B5	0.001 to 0.01 s⁻¹
B6	0.001 to 0.01 s⁻¹

Target: T1, cynomolgus monkey SIRPγ-His monomer …
Test: BLI Octet, captured scFv PPE, cyno SIRP
Protocol: Unique binders were further tested for binding to human SIRPαV1, human SIRPαV2, and human SIRPβ1. Briefly, biotinylated anti-V5 was immobilized onto streptavidin biosensors. Each V5-tagged SIRPγ scFv antibody as crude PPE was captured by the anti-V5 antibody. SIRP-His monomer protein at 500 nM was exposed to the biosensor for binding to SIRP scFv. The biosensors were then exposed to wash buffer to measure off-rate kinetics. The resulting association and dissociation kinetics (kdis) was analyzed. […] Similarly, cross-reactivity to cynomolgus monkey SIRPγ, cynomolgus monkey SIRPα, and cynomolgus monkey SIRPβ1 were tested.

Binder	binding result
B1	binds
B2	binds
B3	binds
B4	binds
B5	binds
B6	binds

Target: T2, cynomolgus monkey SIRPγ on CHO cells
Test: flow cytometry, myc-scFv PPE
Outline: (§1)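 Read-out is median fluorescence intensity for each antibody concentration, measured after a titration series is bound to stably transfected CHO cells and stained with labelled anti-human IgG. The scFv data come from myc-tagged crude PPE, also run on parental CHO-K1, where fold change below 2.0 denotes no binding.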

Binder	MFI fold change over parental CHO
B1	3.71 fold
B2	16.2 fold
B3	23.1 fold
B4	16.5 fold
B5	10.3 fold
B6	3.76 fold

target: T5, human SIRPγ on stably transfected CHO cells (human, UniProt Q9P1W8 29-387); test: flow cytometry, myc-scFv PPE
T5 construct: also called Human SIRPγ CHO
T5 sequence (Q9P1W8 29-387 limits assumed): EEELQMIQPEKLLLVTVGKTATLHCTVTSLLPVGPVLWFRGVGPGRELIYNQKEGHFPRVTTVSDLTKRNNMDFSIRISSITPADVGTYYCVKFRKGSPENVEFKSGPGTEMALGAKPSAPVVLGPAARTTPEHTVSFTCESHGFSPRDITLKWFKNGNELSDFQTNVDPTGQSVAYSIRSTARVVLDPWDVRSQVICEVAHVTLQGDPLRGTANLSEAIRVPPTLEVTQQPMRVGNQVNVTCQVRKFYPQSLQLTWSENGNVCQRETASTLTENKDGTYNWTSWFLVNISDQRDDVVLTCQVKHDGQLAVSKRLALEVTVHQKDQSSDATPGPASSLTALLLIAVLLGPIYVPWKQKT
Outline: as §1

Binder	MFI fold change over parental CHO
B1	17 fold
B2	25.2 fold
B3	38.3 fold
B4	21.6 fold
B5	19.5 fold
B6	5.94 fold

target: T6, human SIRPβ1 on CHO cells (co-transfected with DAP12) (human, UniProt O00241 30-398); test: flow cytometry
T6 construct: whole, on cells; co-transfected with DAP12; also called Human SIRPβ1 CHO
T6 sequence (O00241 30-398): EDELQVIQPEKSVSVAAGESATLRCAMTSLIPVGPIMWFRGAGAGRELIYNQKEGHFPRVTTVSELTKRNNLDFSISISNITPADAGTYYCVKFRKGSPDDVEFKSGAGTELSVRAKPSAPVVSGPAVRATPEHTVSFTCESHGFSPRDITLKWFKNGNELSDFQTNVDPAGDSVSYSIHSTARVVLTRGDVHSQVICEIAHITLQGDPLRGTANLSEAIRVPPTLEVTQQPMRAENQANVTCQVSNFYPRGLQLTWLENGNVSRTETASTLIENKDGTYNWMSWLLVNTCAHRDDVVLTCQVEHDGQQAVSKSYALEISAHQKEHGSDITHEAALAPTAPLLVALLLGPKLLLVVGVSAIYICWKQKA

Binder	binding result
B1	no binding (tested: fold change <2.0)
B2	no binding (tested: fold change <2.0)
B3	no binding (tested: fold change <2.0)
B4	no binding (tested: fold change <2.0)
B5	no binding (tested: fold change <2.0)
B6	no binding (tested: fold change <2.0)

target: T3, cynomolgus monkey SIRPα on CHO cells; test: flow cytometry

Binder	binding result
B1	no binding (tested: fold change <2.0)
B2	no binding (tested: fold change <2.0)
B3	no binding (tested: fold change <2.0)
B4	no binding (tested: fold change <2.0)
B5	no binding (tested: fold change <2.0)
B6	no binding (tested: fold change <2.0)

— patent US20240400677A1 (ELECTRA THERAPEUTICS, published 2024)
